# In the supplement of paper PMC9732359:
# ± gives the uncertainty stated by the source.
# Test: protein stability index of a GFP-peptide fusion (yeast GPS) (PSI 1-4); higher = more stable; sorted into four equal gates, so the index is relative within each strain
# Summary of the method: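 Mid-log yeast cultures in leucine-free medium, carrying a pooled plasmid library, were sorted into four equal gates by their GFP/Cherry fluorescence ratio. Each plasmid expressed Cherry along with GFP fused upstream of a tiled 17-residue yeast protein peptide. Plasmids recovered from each gate were PCR-amplified and Illumina-sequenced, with reads assigned to strains by barcodes. The protein stability index was obtained by summing each gate's read frequency weighted by its gate number.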
sequence,measurement,setting,value
IYDSEDPQQVFDERIKF [RPN3],protein stability index,doa10∆,3.05 ± 0.11
same,protein stability index,pdr5∆,3.09 ± 0.089
same,protein stability index,san1∆,3.23 ± 0.08
same,protein stability index,ubr1∆,2.89 ± 0.06
IYHGNHDVGELFWKVKE [PRE2],protein stability index,doa10∆,1.9 ± 0.063
same,protein stability index,pdr5∆,1.95 ± 0.066
same,protein stability index,san1∆,2.02 ± 0.084
same,protein stability index,ubr1∆,2.45 ± 0.049
IYSVEKKISRLPKFLTV [UBP6],protein stability index,doa10∆,2.04 ± 0.065
same,protein stability index,pdr5∆,2.07 ± 0.066
same,protein stability index,san1∆,2.14 ± 0.091
same,protein stability index,ubr1∆,2.46 ± 0.035
KAAFIRVNGSEFVHKYL [RPT3],protein stability index,doa10∆,2.22 ± 0.062
same,protein stability index,pdr5∆,2.46 ± 0.073
same,protein stability index,san1∆,2.15 ± 0.087
same,protein stability index,ubr1∆,2.77 ± 0.08
KADIGKPGRMPFNFTVT [CDC53],protein stability index,doa10∆,2.33 ± 0.042
same,protein stability index,pdr5∆,2.75 ± 0.048
same,protein stability index,san1∆,2.73 ± 0.058
same,protein stability index,ubr1∆,2.89 ± 0.05
KAEKAEIRKRRASSLKA [RPS6A],protein stability index,doa10∆,2.9 ± 0.25
same,protein stability index,pdr5∆,3.48 ± 0.11
same,protein stability index,ubr1∆,3.06 ± 0.13
KAERVEDQKVVDKALIA [RPL6A],protein stability index,doa10∆,3.25 ± 0.057
same,protein stability index,pdr5∆,3.5 ± 0.06
same,protein stability index,san1∆,3.4 ± 0.044
same,protein stability index,ubr1∆,3.5 ± 0.05
KAFTNWNKRDFMAFINA [ISW2],protein stability index,doa10∆,1.26 ± 0.078
same,protein stability index,pdr5∆,1.25 ± 0.091
same,protein stability index,san1∆,1.25 ± 0.16
same,protein stability index,ubr1∆,1.16 ± 0.062
KAGVEAISQSLRDESLT [PRE5],protein stability index,doa10∆,3.05 ± 0.079
same,protein stability index,pdr5∆,3.09 ± 0.082
same,protein stability index,san1∆,3.37 ± 0.082
same,protein stability index,ubr1∆,3.07 ± 0.067
KAIFQFVCRGMAATQTI [ECM29],protein stability index,doa10∆,1.52 ± 0.051
same,protein stability index,pdr5∆,1.73 ± 0.048
same,protein stability index,san1∆,1.46 ± 0.17
same,protein stability index,ubr1∆,1.48 ± 0.049
KAKTTKKVVLRLECVKC [RPL42A],protein stability index,doa10∆,1.64 ± 0.22
same,protein stability index,pdr5∆,1.52 ± 0.17
same,protein stability index,ubr1∆,1.81 ± 0.065
KAKYNTPKYRLVVRFTN [RPL5],protein stability index,doa10∆,1.39 ± 0.049
same,protein stability index,pdr5∆,1.53 ± 0.073
same,protein stability index,san1∆,1.24 ± 0.21
same,protein stability index,ubr1∆,1.12 ± 0.068
KALDNACGAFININEFA [CDC53],protein stability index,doa10∆,2.56 ± 0.12
same,protein stability index,pdr5∆,3 ± 0.14
same,protein stability index,san1∆,2.71 ± 0.094
same,protein stability index,ubr1∆,2.82 ± 0.15
KALQSIGQLIGEVMKEL [RPT4],protein stability index,doa10∆,3.35 ± 0.092
same,protein stability index,pdr5∆,3.17 ± 0.15
same,protein stability index,san1∆,3.39 ± 0.095
same,protein stability index,ubr1∆,3.36 ± 0.058
KAMDIPIGRHEELLAQY [SWP82],protein stability index,doa10∆,2.07 ± 0.044
same,protein stability index,pdr5∆,2.25 ± 0.043
same,protein stability index,san1∆,2.13 ± 0.068
same,protein stability index,ubr1∆,2 ± 0.029
KAPLEDDDKKPDDDKIV [RPT1],protein stability index,doa10∆,2.67 ± 0.15
same,protein stability index,pdr5∆,3.11 ± 0.17
same,protein stability index,san1∆,3.19 ± 0.14
same,protein stability index,ubr1∆,3.26 ± 0.067
KASRKSVGLPSKVASSL [ECM29],protein stability index,doa10∆,2.81 ± 0.055
same,protein stability index,pdr5∆,2.79 ± 0.066
same,protein stability index,san1∆,2.69 ± 0.056
same,protein stability index,ubr1∆,2.84 ± 0.052
KCGSVTVRLIPAPRGSG [RPS2],protein stability index,doa10∆,1.35 ± 0.11
same,protein stability index,pdr5∆,2.07 ± 0.072
same,protein stability index,san1∆,1.4 ± 0.17
same,protein stability index,ubr1∆,1.99 ± 0.1
KCGVISPRFNVKIGDIE [RPS22A],protein stability index,doa10∆,3.28 ± 0.1
same,protein stability index,pdr5∆,3.35 ± 0.093
same,protein stability index,san1∆,2.78 ± 0.11
same,protein stability index,ubr1∆,3.43 ± 0.079
KDDMKVDDAIELALKTL [PRE9],protein stability index,doa10∆,2.76 ± 0.25
same,protein stability index,pdr5∆,3.52 ± 0.1
same,protein stability index,san1∆,3.18 ± 0.077
same,protein stability index,ubr1∆,3.65 ± 0.09
KDEEIEKLLQQDREITN [MED8],protein stability index,doa10∆,3.26 ± 0.13
same,protein stability index,pdr5∆,3.12 ± 0.13
same,protein stability index,san1∆,3.06 ± 0.24
same,protein stability index,ubr1∆,3.59 ± 0.14
KDEETTEKARLIDFEYV [RRI2],protein stability index,doa10∆,3.21 ± 0.098
same,protein stability index,pdr5∆,3.5 ± 0.14
same,protein stability index,san1∆,3.56 ± 0.073
same,protein stability index,ubr1∆,3.13 ± 0.11
KDGEIMLWNLAAKKAMY [ASC1],protein stability index,doa10∆,2.55 ± 0.071
same,protein stability index,pdr5∆,1.87 ± 0.05
same,protein stability index,san1∆,2.26 ± 0.067
same,protein stability index,ubr1∆,1.76 ± 0.097
KDIFRYMQRTVEEAHDF [RPB2],protein stability index,doa10∆,2.24 ± 0.075
same,protein stability index,pdr5∆,1.45 ± 0.046
same,protein stability index,san1∆,1.91 ± 0.12
same,protein stability index,ubr1∆,1.3 ± 0.045
KDLQENLLVLRGKNEII [RPO21],protein stability index,doa10∆,1.31 ± 0.077
same,protein stability index,pdr5∆,1.52 ± 0.056
same,protein stability index,san1∆,1.6 ± 0.12
same,protein stability index,ubr1∆,1.58 ± 0.071
KDNAIYNGFIDIFSNLS [YCS4],protein stability index,doa10∆,2.85 ± 0.076
same,protein stability index,pdr5∆,2.72 ± 0.081
same,protein stability index,san1∆,2.87 ± 0.07
same,protein stability index,ubr1∆,2.77 ± 0.047
KDNARIYQVPEKDLEHW [POP1],protein stability index,san1∆,2.26 ± 0.23
KDPDVPLVLLQQIPLLC [POP3],protein stability index,doa10∆,2.33 ± 0.055
same,protein stability index,pdr5∆,2.57 ± 0.064
same,protein stability index,san1∆,2.4 ± 0.06
same,protein stability index,ubr1∆,2.47 ± 0.052
KDQIQAGKWFDPVLDWR [SIR4],protein stability index,doa10∆,3.56 ± 0.14
same,protein stability index,pdr5∆,3.49 ± 0.094
same,protein stability index,san1∆,2.95 ± 0.19
same,protein stability index,ubr1∆,3.22 ± 0.07
KDRYINGDKKVDIYSLP [YMR129W/POM152],protein stability index,doa10∆,3.15 ± 0.091
same,protein stability index,pdr5∆,2.77 ± 0.094
same,protein stability index,san1∆,3.03 ± 0.042
same,protein stability index,ubr1∆,3.23 ± 0.069
KDTIVKEAEDKTLVALE [RPC37],protein stability index,doa10∆,3.4 ± 0.11
same,protein stability index,pdr5∆,3.11 ± 0.093
same,protein stability index,san1∆,3.33 ± 0.19
same,protein stability index,ubr1∆,3.18 ± 0.097
KEDEPVVARRSNSANVS [ITC1],protein stability index,doa10∆,3.07 ± 0.064
same,protein stability index,pdr5∆,3.06 ± 0.068
same,protein stability index,san1∆,2.57 ± 0.048
same,protein stability index,ubr1∆,2.4 ± 0.05
KEDTVSWFKQKYDADVL [RPL11A],protein stability index,doa10∆,1.5 ± 0.069
same,protein stability index,pdr5∆,1.43 ± 0.055
same,protein stability index,san1∆,1.57 ± 0.1
same,protein stability index,ubr1∆,1.53 ± 0.06
KEENDEGLSAQIAFDLV [RPN2],protein stability index,doa10∆,3.4 ± 0.14
same,protein stability index,pdr5∆,3.56 ± 0.098
same,protein stability index,san1∆,3.44 ± 0.076
same,protein stability index,ubr1∆,3.33 ± 0.055
KEFKGIKVTVQLKIQNR [RPL12A],protein stability index,doa10∆,1.3 ± 0.08
same,protein stability index,pdr5∆,1.62 ± 0.071
same,protein stability index,ubr1∆,2.4 ± 0.09
KEGASTNWDDHAIIIFG [YMR153W/NUP53],protein stability index,doa10∆,2.86 ± 0.094
same,protein stability index,pdr5∆,3.05 ± 0.075
same,protein stability index,san1∆,3.27 ± 0.095
same,protein stability index,ubr1∆,2.59 ± 0.059
KEISTRVFNAKDTTGPK [YCS4],protein stability index,doa10∆,3.04 ± 0.11
same,protein stability index,pdr5∆,2.91 ± 0.13
same,protein stability index,san1∆,3.21 ± 0.081
same,protein stability index,ubr1∆,2.99 ± 0.089
KELMLQSKKLIEEKLSS [YIL149C/MLP2],protein stability index,doa10∆,2.95 ± 0.12
same,protein stability index,pdr5∆,2.96 ± 0.11
same,protein stability index,san1∆,2.72 ± 0.11
same,protein stability index,ubr1∆,3.05 ± 0.07
KENKKRKNFKMGPLYQN [IRR1],protein stability index,doa10∆,1.33 ± 0.046
same,protein stability index,pdr5∆,1.99 ± 0.08
same,protein stability index,san1∆,2.05 ± 0.078
same,protein stability index,ubr1∆,2.13 ± 0.059
KENLSKSSWRQEWLANL [SIR4],protein stability index,doa10∆,1.98 ± 0.048
same,protein stability index,pdr5∆,1.68 ± 0.034
same,protein stability index,san1∆,1.92 ± 0.07
same,protein stability index,ubr1∆,2.55 ± 0.026
KEPRLVIVTDPRLDAQA [RPS0B],protein stability index,doa10∆,3.41 ± 0.25
same,protein stability index,pdr5∆,3.42 ± 0.17
same,protein stability index,ubr1∆,2.61 ± 0.16
KERYTVEDELTESIALS [RRI1],protein stability index,doa10∆,3.1 ± 0.065
same,protein stability index,pdr5∆,3.29 ± 0.052
same,protein stability index,san1∆,3.11 ± 0.075
same,protein stability index,ubr1∆,3.23 ± 0.058
KESEISHNENKMDFSSK [YIL149C/MLP2],protein stability index,doa10∆,2.99 ± 0.086
same,protein stability index,pdr5∆,3 ± 0.093
same,protein stability index,san1∆,3.16 ± 0.086
same,protein stability index,ubr1∆,3.19 ± 0.24
KESWDPNTTKTKLRAFV [YGR119C/NUP57],protein stability index,doa10∆,3.5 ± 0.22
same,protein stability index,pdr5∆,2.93 ± 0.19
same,protein stability index,san1∆,3.37 ± 0.12
same,protein stability index,ubr1∆,2.77 ± 0.1
KEVASLPNKSTISKTVS [FAS2],protein stability index,doa10∆,3.09 ± 0.12
same,protein stability index,pdr5∆,3.05 ± 0.12
same,protein stability index,san1∆,3 ± 0.08
same,protein stability index,ubr1∆,3.21 ± 0.14
KFHSELQYLDKHIKNLE [RPN12],protein stability index,doa10∆,3.14 ± 0.12
same,protein stability index,pdr5∆,2.7 ± 0.17
same,protein stability index,san1∆,2.84 ± 0.13
same,protein stability index,ubr1∆,3.15 ± 0.072
KFILSGFIFTSMILEAI [RRI2],protein stability index,doa10∆,1.58 ± 0.06
same,protein stability index,pdr5∆,1.2 ± 0.035
same,protein stability index,san1∆,1.17 ± 0.11
same,protein stability index,ubr1∆,1.11 ± 0.048
KFLREVFVDGEANWPLP [RPO21],protein stability index,doa10∆,2.85 ± 0.085
same,protein stability index,pdr5∆,3.16 ± 0.079
same,protein stability index,san1∆,3.04 ± 0.093
same,protein stability index,ubr1∆,3.12 ± 0.074
KFNNGVVIAADTRSTQG [PUP1],protein stability index,doa10∆,1.6 ± 0.066
same,protein stability index,pdr5∆,2.4 ± 0.13
same,protein stability index,san1∆,2.2 ± 0.2
same,protein stability index,ubr1∆,2.7 ± 0.095
KFPDMGSLWVEFCDEPS [RPB5],protein stability index,doa10∆,2.75 ± 0.044
same,protein stability index,pdr5∆,2.89 ± 0.06
same,protein stability index,san1∆,2.9 ± 0.066
same,protein stability index,ubr1∆,2.96 ± 0.045
KFQLKKVLCLAVAVGNV [RPL1A],protein stability index,doa10∆,1.63 ± 0.047
same,protein stability index,pdr5∆,1.25 ± 0.051
same,protein stability index,san1∆,1.27 ± 0.09
same,protein stability index,ubr1∆,1.15 ± 0.033
KGGEQISQLYSDAVMAE [YJL041W/NSP1],protein stability index,doa10∆,2.25 ± 0.12
same,protein stability index,pdr5∆,2.01 ± 0.12
same,protein stability index,san1∆,2.19 ± 0.14
same,protein stability index,ubr1∆,2.33 ± 0.13
